This is an account of results in publication PMC3509150 (2012).

A word on the koff: it is a measure of how fast the partners let go of each other. A low value points to a long-lived complex.

This assay concerns the target HIV-1 capsid protein (CA), full-length (HIV-1, UniProt P12493 133-363).

B1: CANTDcb1 nanobody with C-terminal 6xHis-tag, purified (VHH)
VHH: QVQLVESGGGLVQAGGSLRLSCAASGYFSSYAMGWFRQAPGKEREFVAAISWIESTTDYADSVKGRFTISRDNAKKTLHLQMNSLKPEDTAVYYCAACDIPFGQAFCALYDYWGQGTQVTVSS
B1: the koff is 0.00012 s⁻¹.
